Measurements published in the nanobody polyreactivity screen of Harvey et al. (2022).

Assay: yeast display, Sf9 membrane polyspecificity reagent, FACS + sequencing; frameworks hold sequencing errors
Method in brief: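 Galactose induction of a Saccharomyces cerevisiae BJ5465 synthetic nanobody display library ran 36–48 hours. The cells were then stained for 1 hour at 4 °C with 10% biotinylated, detergent-solubilized Sf9 membrane reagent, pulled down on streptavidin microbeads and FACS-sorted into low and high (top ~1%) gates on expression and reagent-binding fluorescence. Labels for polyreactivity follow the gate of origin.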

Row | Sequence | polyreactivity (PSR sort gate)
1 | QVQLVESGGRLVQAGGSLRLSCAASGRIFSRNAMGWYRQAPGKERELVAGISARGGRTYYADSVKGRFTISRDNAKNTVYLQMNSLKPEDTAVYYCAASFSAIRGGVRVTIDYYWGQGTQVTVSS | high polyreactivity
2 | QVQLVESGGRLVQAGGSLRLSCAASGRIFVVNAMGWYRQAPGKEREFVAAITDNTGSTYYADSVKGRFTISRDNAKNTGYLQMNSLNPEDTAVYYCAAYGYSKDLWNFYYWGQGTQVTVSS | low polyreactivity
3 | QVQLVESGGRLVQAGGSLRLSCAASGRIFWHNAMGWYRQAPGKETELVAAISSRGGSTSYSDSVKGRFTISRDNAKNTVYLQMNSLKPEDTAVYYCAALFRPRVHRYDYWGQGTQVTVSS | low polyreactivity
4 | QVQLVESGGRLVQAGGSLRLSCAASGRLFASNAMGWYLQAPGTEMELVAGNSRNGGSTFYADSVKGRFTISRDNAKNTVYLQMNSRKPEDSAVYYCARYYTHSGGYRDRIYYFWGQGTQVTVSS | low polyreactivity
5 | QVQLVESGGRLVQAGGSLRLSCAASGRTFDFYAMGWYRQAPGKERELVAAISSRGGSTYYADSVKGRFTISRDNAKNTVYLQMNSLKPEDTAVYYCAKDLGYRGRYNYWGQGTQVTVSS | low polyreactivity
6 | QVQLVESGGRLVQAGGSLRLSCAASGRTFLHNAMGWYRQAPGKERELVAAIDSGGTTHYADSVKGRFTISRDNAKNTVYLQMNSLKPEDTAVYNCAARPTRGHWWYGNWGQGTQVTVTS | low polyreactivity
7 | QVQLVESGGRLVQAGGSLRLSCAASGRTFVSYAMGWYRQAPGKERELVATITGSTGGTYYADSVKGRFTISRDNAKNTVYLQMNSLKPEDTAVYYCNKDYYYNPGNVASGYDYWGHGTQVTVSS | low polyreactivity
8 | QVQLVESGGRLVQAGGSLRLSCAASGSIFAWSMGWYRPAPGKERELVAAISSGGSTYYADSVKGRFTISRDNAKNTVYFQMNSLKPEDTAVYYCAAGLISRFSRYYFWGQGTQVTVSS | high polyreactivity
9 | QVQLVESGGRLVQAGGSLRLSCAASGSIFRYYALGWYRQAPGKERELVAAISWSGGSTYYADSVKGRFTISRDNAKNTVYLQMNSLKPEDTAVYYCATTPGVWSTGGTNGFGYWGQGNQVTVSS | high polyreactivity
10 | QVQLVESGGRLVQAGGSLRLSCAASGSIIAWYVLGWYRRAAGKERELVAGIDTSGGSTFYADSVMGRFTISRDIAKNTVYLQMNSLKTEATAVYYCAADTWYRGPWEFDYWGQGTQVTVSS | low polyreactivity
11 | QVQLVESGGRLVQAGGSLRLSCAASGSTFRGYAMGWYIPAPGKEWELVATITSGGSTKYADSVKGRFTISRDNAKNTVYLQMNSLKPEDTAVYYCNAVPRSWSPYRHWFDYWGQGTQVTVSS | low polyreactivity
12 | QVQLVESGGRLVQAGGSLRLSCAASGSTFVCYAMGWYRQAPGKERELVAAISSGGRTHYADSVMARFTISRDNAKNTVILQMNSLKREDTAFYYCNAAYYILRFRYDYWGQGTQVTVSS | high polyreactivity
13 | QVQLVESGGRLVQAGGSLRLSCAASGSTFYPYAMGWYRQAPGKERELVAAINGNGGRTYYADSVKGRFTISRDNAKNTVYLQMNSLKPEDTAVYYCAVVRVAWGHRSDYWGQGTQVTVSS | high polyreactivity
14 | QVQLVESGGRLVQAGGSLRLSCAASGYIFKTNVMGWYRQAPGKEREMVAAISWSGGRTYYADSVKGRFTISRDYGKNCVYLQMNSLKPEDTSVYYFAAVGRQSIYFVDYDFWGQGTQVTVSS | high polyreactivity
15 | QVQLVESGGRLVQAGGSLRLSCAAYGSTFQGYAMGWYRQAPGKERELVADISWSGGSTYYADSVKGRFTISRDNAKNTVYLQMNSLKPEDTAVYYCNAVGYLDFEWGQGTQVTVSS | low polyreactivity
16 | QVQLVESGGRLVQAGGSLRLSCASSGFTFRYYAMGWYRQAPGKERELVASITGNGGSTYYADSVKGRFTISRDNAKNTVFLHMNSLKPEDTAVYYCNARVRGYYEYNYWGQGTQVTVSS | high polyreactivity
17 | QVQLVESGGRLVQAGGSLRLSCSASGLTFTNYAMGSYRQAPGKERELVAAISNSGATTYYADSVKGRFTISRDNAKNTVYVQLKSLKPEDTAVYYCAATSYTATWRYYYWGQGTQVTVSS | high polyreactivity
18 | QVQLVESGGRLVQAGGSLSISCAASGSTFTSYSMGWYRQAPGKERELVAAIRRIGGDTYYADSVKGRFTISRDNAKNTVYLQMNSLKPEDTAVNYCAAVRWRSEPYWYHAMEHWGQGTQVTVSS | low polyreactivity
19 | QVQLVESGGRLVQAGGSRRLSCAASGFTFGIYAMGWYRQAPGKARELVAAITSGGITKYADSVKGRFTISRDNAKNTVYLQMKSLKPEDTAVYYCAATGFRQSYDSTWYRYDYWGQGTQVTVSS | low polyreactivity
20 | QVQLVESGGRLVQAGGSRRLSCAASGSTFYTNDMGWYIQAPGKERELVAAISSGGDYADSVKGRFTISRDNAKNTVYLQMNSLKPEDTAVYYCAKADTKWGQGTQVTVSS | low polyreactivity
21 | QVQLVESGGRLVQAGGTLRLSCADSGNTLHVYAMGWYRQAPGKERELVARITGGGRKYYADSVKGRFTISRDNAKNTVYLLMNSLNPEDTAVYYCATDYYGHKFLYDYWGQGTQVTVSS | low polyreactivity
22 | QVQLVESGGRLVQAVGSLRLSCAASGRTFEYYNMGWYRQEPGKEREFVAANTWGGGSTSYADSVKGRFTISRDNAKNTVYLQMNSLKPEDTAVYYCAADDVYYDDDYWGQGTQVTVSS | high polyreactivity

Row | Sequence | polyreactivity (PSR sort gate)
23 | QVQLVESGGRLVQGRGSLRLSCAASGRTFHIYDIGWYRQAPGKERELVAAIRGRSGSTYYADSVKGRFTISRDNAKNNDYLQMNSLTPEDNAVYYCAAENLGRFVASEYDYWGQGTQVTVSS | high polyreactivity
24 | QVQLVESGGSIVQAGGSLRLSCAASGSTFDVYDMGWYRHAPGKERELVAAITTSGGGTYYADSVKGRFTISRDNAKNTGYLQMNSLKPEDTAVYYCAADTWRDGDDYWGQGTQVTVSS | low polyreactivity
25 | QVQLVESGGSLVQAGGSLRLSCAASGFIFIRYAMGWYRQAPGKERELVAAITTSTGRTYYADSVKGRFTISRDNAKNTVYLQMNSLKPEDTAVYYCAAVPWKRYDYYTPFARGYWGQGTQVTVSS | low polyreactivity
26 | QVQLVESGGVFVQAGGSLRLSCAASGSIFPYVNAMGWYRQAPGKEREFVASIPGGGGTKYADSVKGRFTISRDNAKNTVYLQMNSLKAEDTAVYYCNATSGNPASTAWMNYWGQGTQVSVSS | low polyreactivity
27 | QVQLVESGGVIVQAGGSLRLSCAASGFTFQAYAKGWYRQAPGKETELVAAITRSGGRTYYADSVKGRFTISRDNAKNTVYFQMKRLKPEDTAVYYCAKLSDSITLYGYWGQGTQVTVSS | high polyreactivity
28 | QVQLVESGGVLDQAGGSLRLSCAAAGITSPDNVMGWYRKAPGKEFDLVAANSGSGGSTYYADYVQGRFTISRDNAKNSVYLQINILKPEDTAVYYCAADVEYKVFPGDYWGQGTQVTVSS | low polyreactivity
29 | QVQLVESGGVLFQAGGSLRLSCAASGRISYANAIGWYRQAPGKESEMVASITYSAGSTYADSVKGRFTISRDNAKNTVYLQMISLKPEDTAVYYCAKRPCQHYRSYLMDYWGQGTQVNVSS | low polyreactivity
30 | QVQLVESGGVLLQGGGSLRLTWAASGGIFTDYTIRSYRQAPGKERELVADITWTGGSTYYPDSVKGRFTISRDNAKNTVYLQMNSLKPEDTAVYYCAADDYWVNLDYWGQGTQVTVSS | low polyreactivity
31 | QVQLVESGGVLVQAGASLRLSCAASGLTFAVYTMGGYRQAPGKEMELVAAITWDGGITYYADSVKGRFTISRDNAKYTVYLQMNSLKPEDTAVYYCAADYALGEVYWYNYWGQGTQVTVSS | low polyreactivity
32 | QVQLVESGGVLVQAGGSLRISSAASGRIFKVYAMGWYRQAPGKEREFVAVITGGGSTNYADSVKGRFTISRDNAKNTVYLQMNSLKPEDTGVYYCATEGYGHGGETDGGVYSDLGYWGQGTQVTVSS | low polyreactivity
33 | QVQLVESGGVLVQAGGSLRLSCAASGFIFRSNGMGWYRQARGKERELVAVITSSTGSTSYADSVKGRFTISRDNAKNTVYLQMNSLKPEDTAVYSCAADYQFGRGAEPYVFFDPEMDYWGQGTQVTESS | low polyreactivity
34 | QVQLVESGGVLVQAGGSLRLSCAASGFTFGPYAMGWYRPAPGKERELVATIRSGDSTNYADSVKGRFTISRDNAKNTVYLQMNSLKPEDTAVYYCARDARASARRKRYDYGGQGTQVTVSS | low polyreactivity
35 | QVQLVESGGVLVQAGGSLRLSCAASGFTFLAYAMGWYRQAPGKERELVAAINSSDGTTHYADSVKGRFTISRDNAKITVYLQMNSLKPEDTAVYYCAVSQVRTGEGYHYWGQGTQVTVSS | low polyreactivity
36 | QVQLVESGGVLVQAGGSLRLSCAASGIIFGRDTMGWYRQAPGKERELVAAITSSGITYYADSVKGRFTFSRDNAKNCVYLQMNSLKPEDTAVYYCIADYSIPGYYWPYDYWGQCTQVTVSS | low polyreactivity
37 | QVQLVESGGVLVQAGGSLRLSCAASGIIFVYNPMGWYRPAPGKERELVAGISWNGVSTYYADSVKWRFTISRDYAKYTVYLQMNSLKPEDTAVYYCAASLWVYVGQARYLWYDYWGQGTQVTVSS | low polyreactivity
38 | QVQLVESGGVLVQAGGSLRLSCAASGITFGDNAMGWYRQAPGKERELVAAITTSVDSTYYADSVKGRFTISRDNAKNTVYLQMNSLKPEDTAVYYCAVAFVQFTQYDYWGQGTQVTVSS | low polyreactivity
39 | QVQLVESGGVLVQAGGSLRLSCAASGITFIGYAMGWYRQAPGKERELVASITSGANTNYADSVKGRFTISRDNAKNTVYLQMNSVKAEDTAVYYCAAPEHGTYANILGEPLDYWGQGTQVTVSS | low polyreactivity
40 | QVQLVESGGVLVQAGGSLRLSCAASGITFPGYAMGWYRKAPGKERELVAAISAIGGRTYYADSVKGRFTISRYNAKNTVYLQMNSLKPEDTAVYYCNVLPYGGKKPTLFDYWGQGTQVTVSS | high polyreactivity
41 | QVQLVESGGVLVQAGGSLRLSCAASGNIFVPYAMGWYRQAPGKERDLVAAISSRGGRTYYADSVKGRFTISRDNAKNTVYLQMNSLKPEDTAVFYCNKVAKSSVLTLDYWGQGTQVTVSS | high polyreactivity
42 | QVQLVESGGVLVQAGGSLRLSCAASGRIFDDYAMGWYRQAPGKERELVAAIRSGGNSNYADSVKGRFTISRDNAKNTVYLQMNSLTPEETAVYYCAADEVRSAWRCSSPPDYDHWGQGTHVTVSS | low polyreactivity
43 | QVQLVESGGVLVQAGGSLRLSCAASGRIFHYYAMGWYRQAPGKETELVAANSSRRGSTYYADSVKGRFTISRDNAKNNFYLQMNILKAYDTAVYYCNARGWGYWVRFDYWGQGTQVTVSS | high polyreactivity
